Reference: patent US20170369592A1, “NOVEL ANTI-FIBROBLAST ACTIVATION PROTEIN (FAP) ANTIBODIES AND USES DERIVED THEREOF” (Mabimmune Diagnostics AG, priority 2015, published 2017)

Tests used:
[1] = test system: multiple myeloma cells and tumor stroma in the syngeneic MOPC315.BM mouse model; test: Immunofluorescence on murine multiple myeloma tissues; conditions: Cy5 labelled antibody, MOPC315.BM BALB/c mice
Protocol: BALB/c mice were injected with 2×10^6 of the murine multiple myeloma cell line […] intravenously. BALB/c mice were injected with a vehicle-only control. Bone tissue was harvested and fixed in 4% PFA, decalcified in 10% EDTA (pH 7.4), embedded in paraffin before being sectioned (4 μm) and rehydrated. Then, CD138 mAb (Clone 281-2, BD Pharmingen) and Cy5 labelled NI-206.82C2 were used to identify MOPC315.BM.Luc cell infiltration, and NI-206.82C2 binding to these cells and surrounding stromal cells in the tissue sections. Stained tissue sections were then imaged using a fluorescent microscope (FIG. 13).

[2] = target: T1, transmembrane human FAP (Homo sapiens, UniProt Q12884); test: Flow cytometry on FAP-HEK293 cells at pH 7.4, 6.8, 6.4; format: cell-based; conditions: pH 6.4 and 6.8 vs pH 7.4, FAP-HEK293 cells, Cy5 labelled
T1 construct: retrovirus encoding full length human FAP cDNA; host or cells: HEK293 (FAP-HEK293, G418 selected)
T1 sequence (Q12884 1-760): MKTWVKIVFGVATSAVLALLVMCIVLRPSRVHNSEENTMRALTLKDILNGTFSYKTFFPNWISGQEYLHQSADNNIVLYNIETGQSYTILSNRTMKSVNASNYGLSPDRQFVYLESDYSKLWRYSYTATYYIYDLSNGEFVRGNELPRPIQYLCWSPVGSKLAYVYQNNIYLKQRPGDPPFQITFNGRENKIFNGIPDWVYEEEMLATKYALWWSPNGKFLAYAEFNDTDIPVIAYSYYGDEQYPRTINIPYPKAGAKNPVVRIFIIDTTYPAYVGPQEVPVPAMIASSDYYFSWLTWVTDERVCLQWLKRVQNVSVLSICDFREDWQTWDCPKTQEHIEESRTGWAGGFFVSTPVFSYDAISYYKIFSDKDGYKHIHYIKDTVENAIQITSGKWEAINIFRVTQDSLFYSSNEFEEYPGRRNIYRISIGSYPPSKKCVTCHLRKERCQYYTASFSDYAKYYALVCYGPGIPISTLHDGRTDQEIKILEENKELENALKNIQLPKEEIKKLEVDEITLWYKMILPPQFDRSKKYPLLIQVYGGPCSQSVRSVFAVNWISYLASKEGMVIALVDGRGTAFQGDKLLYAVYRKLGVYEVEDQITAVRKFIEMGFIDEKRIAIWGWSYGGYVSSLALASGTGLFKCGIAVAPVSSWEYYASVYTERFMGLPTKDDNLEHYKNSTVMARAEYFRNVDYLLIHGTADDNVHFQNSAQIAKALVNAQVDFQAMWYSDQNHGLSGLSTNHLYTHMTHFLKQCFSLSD
Protocol: To evaluate the binding of NI-206.82C2 to transmembrane human FAP, an FAP expressing HEK293 cell line was received from the National Institutes of Health, Bethesda, Md. The generation of this FAP expressing HEK293 cells is described in: J. Exp. Med. 2013 Vol. 210 No. 6 1125-1135.
HEK293 cells were transduced with retrovirus encoding full length human FAP cDNA. Cloning was performed using Fast Cloning Pack and FastDigest restriction enzymes (both from Fermentas). Transient retroviral supernatants were generated by transfecting 293GP cells with the FAP plasmid using Lipofectamine 2000 (Invitrogen). Retroviral supernatants were collected at 48 h after transfection and centrifuged onto Retronectin-coated (10 μg/ml; Takara), non-tissue culture-treated 6-well plates at 2,000 G for 2 h at 32° C. These retroviral supernatants where then used to transduce HEK293 cells overnight. Transduced FAP-HEK293 cells were selected with 1 mg/ml G418 (CellGro). […]
To analyze antibody binding, fluorescent activated flow cytometry was performed using a BD Fortesa device for forward scatter, side scatter, and the mean fluorescent intensity (MFI) of the Cy5 channel was recorded using a […] laser excitation and 600/20 filter. Viable cells were gated by forward and side scatter, and singlets/doublet exclusion, and the MFI for Cy5 was quantified using FlowJo software Version 10.1.

[3] = test system: 4T1 breast tumor; test: In-vivo fluorescence imaging in 4T1 breast tumor bearing Balb/c mice; conditions: fluorescently labeled antibody, tumor mouse model
Protocol: These antibodies are designated as A680-82C2 (Alexa 680 labelled 82C2) and A680-43A11 (Alexa 680 labelled 43A11).
A murine cancer model was generated by the injection of 100′000 4T1 cultured breast tumor cells orthotopically into the 2nd left breast of Balb/c immunocompetent mice and allowed to grow for 7 days. Prior to in vivo imaging, the animals were shaved and de-epilated to remove fur for minimal absorbance and scattering of the incident optical light. In-vivo imaging was performed with the Maestro 500 imaging system (Cambridge Research Inc, Woburn, USA). For A680-82C2 detection, a band pass filter from 615 nm-665 nm and a highpass filter over 700 nm were used for excitation and emission light respectively, and fluorescence was detected by a CCD camera (cooled to 11° C.). A series of images were acquired at different wavelengths and then subjected to spectral unmixing (deconvolution of collected optical spectra; this enabled the unmixing of the Alexa680 fluorescence pattern from tissue auto-fluorescence and other spectral contributions).
The 4T1-breast tumor bearing Balb/c mice (3-4 in each group) were then injected on day 7 after innoculation with 2 mg/kg of A680-82C2 or A680-43A11. Whole mice images were acquired at the following timepoints: before antibody injection, immediately after antibody injection, 6h, 24h, 48h, and 6d after antibody injection.

B1: NI-206.82C2: recombinant human memory B cell-derived monoclonal anti-FAP IgG1 antibody, variable regions in FIG. 1A, FAP inhibitory (antibody, V domains shown)
VH: QVQLQQSGPGLVKPSQTLSLTCAISGDSVSSNSVTWNWIRQSPSRGLEWLGRTYYRSKWYNDYAVSVKGRITINPDTSKNQFYLQLKSVTPEDAAVYYCARDSSILYGDYWGQGTLVTVSS
VL: QAVLTQPSSLSASPGASASLTCTLPSGINVGTYRIFWFQQKPGSPPQYLLSYKSDSDNHQGSGVPSRFSGSKDASANAGILLISGLQSEDEADYYCMIWHSSAWVFGGGTKLTVL
In the case of B1, the “binding to multiple myeloma cells and tumor stroma” value [1] is reported as “binds”, the “binding to transmembrane FAP, pH dependence (Δ MFI)” value [2] is reported as “higher affinity at lower pHs” and the “antibody concentration after 6 d post antibody injection” value [3] is reported as “almost zero”.
